In US20250312468A1, “ANTI-PROTAC ANTIBODIES AND COMPLEXES” (Merck Patent GmbH, priority 2021, published 2025):

What was measured:
EGFR [1] = biological target: EGFR (UniProt P00533); experiment: flow cytometry on MDAMB468 cells, Alexa Fluor 488 anti-human IgG Fab as secondary, on ice
EGFR [2] = biological target: EGFR (UniProt P00533); experiment: cell-based or functional assay
CD33 = CD33 (UniProt P20138); experiment: flow cytometry on CD33-expressing MV411 cells, Alexa Fluor 488 anti-human IgG Fab as secondary, on ice

## EGFR-binding antibody Cetuximab
EGFR [1]
  EC50 (read off the curve): 600 pM

## C225-L328C-GNE987 (antibody)
EGFR [2]
  IC50 cell viability, MDAMB468 cells, three independent experiments: 800 pM
  remaining nuclear BRD4 (immunofluorescence) in EGFR-expressing MDAMB468 cells at 4 nM: 44.2%

## CD33-binding antibody Gemtuzumab (IgG4-PG-SPLE)
CD33
  EC50 (read off the curve): 300 pM
